Results from the DeepSol protein solubility set.

test: soluble on expression in E. coli; label from the status in PepcDB or PDB records

Soluble on expression in E. coli, not soluble:
MGSDKIHHHHHHMSSHHETSENVVIKQADFIESVADALQYISYYHPKDFVDAMSEAYEREQSAAAKDAIAQILINSRMSAEGKRPLCQDTGIVTTFVKVGMGVKWDKTDMTIQQMVDEGVRRAYTNPDNPLRASIVADPAGSRKNTKDNTPSVVHIDMVPGNHVEVAIAAKGGGSENKAKMVMLNPSDDIAAWVEKTLPTMGAGWCPPGMLGIGIGGTAEKAAVLAKEALMESVDIHELMARGAQTTEEKLRLDIFERANNLGIGAQGLGGLTTVLDVKIKSAPTHAASKPVVMIPNCAATRHVHFHLDGTGPADLAPPSLSDWPEITREVGSDVRRVNLDTVTQADIEQWQSGETLLLSGKMLTGRDAAHKRIQSLIESGEGLPEGVDFTGKFIYYVGPVDPVGNEVVGPAGPTTATRMDKFTDLMLDKTGLMGMIGKAERGPATVESIKKHKAVYLMAVGGAAYLVSKAIKKSRVVAFADLGMEAIYEFDVQDMPVTVAVDSNGVNAHETGPAIWKVNIANANAKA, MGSDKIHHHHHHMSSIYGADLRTVGERIKGERKRLGLSQTAFANLAGVGKTTQINYEKGTRNPDTEYLAALDSAGVDVYYVLTGRKSSGGSSDVQAPVEEPLDGYSPVPMYDIEAAAGAGRLIEHENIESTLYFQTQALSAEGLDPAHLIGAKVRGDSMGSTLQDGDRVIVDCSQRTPDGVFLLRVGEEYRIKRVQRVAGGAWLLISDNHAYEKEMIKPDEMQDVEILGRCRVRIGRVS, MGSDKIHHHHHHMSSKPIAPLHGRTIIMTRAQEQQSEARSQLHALGSNVLDLPALVIGPPDDWQPLDDALADIKTFHWLVFSSANGVRAVEERLQRIGQSLANRPKGLKLAAVGRKTAQYLEHLGAAVDFVPPNFVADSLINHFPVSGFGLKMLLPRVQSGGRTILGEAFRESGAHVIEVAAYESRCPEAIPDDTATALANSNVDAIAFSSGKTAAHTASLLSHRFGSDWLQQLETVKVISIGPQTSLSCEQHFGRVDQEADPHNLEGLISACVKACRSEAETCPPGSR, MGSDKIHHHHHHMSSNESQTLATISPTALSQLARYIKQWGQELGFAQVGITDTDLSEEEAKLQDWLDKGYHGEMGYMANHGMMRARPHELHQGTKRVVSLRMDYLPPSAGFATNLIDPTLGYISRYAGGRDYHKLMRQRIKKLGDKIEAYCQEQGFGATDSRPFVDSAPVMERPLAEKAGIGWTGKHSLILNHNAGSWFFLGELFINLPLPLDIPISDGCNTCVACIKSCPTGAIVEPYVVDGRRCISYLTIELQGAIPEEFRPLMGNRIYGCDDCQLVCPINAQAPLTQEHDFHIRQQILQPELLTLFNWSEKTFLSLTEGSAIRRIGHKRWLRNIAIALGNAPANPNIIEALSARKASDEVDDMVLEHINWALAQQQAKVQQQTKVQQQAKVQQAVQFEPARETPAQRKTARVVRSVEKGLPRDA, MGSDKIHHHHHHMSSNTFTLGTKSVNRLGYGAMQLAGPGVFGPPRDRHVAITVLREALALGVNHIDTSDFYGPHVTNQIIREALYPYSDDLTIVTKIGARRGEDASWLPAFSPAELQKAVHDNLRNLGLDVLDVVNLRVMMGDGHGPAEGSIEASLTVLAEMQQQGLVKHIGLSNVTPTQVAEARKIAEIVCVQNEYNIAHRADDAMIDALAHDGIAYVPFFPLGGFTPLQSSTLSDVAASLGATPMQVALAWLLQRSPNILLIPGTSSVAHLRENMAAEKLHLSEEVLSTLDGISRE, MGSDKIHHHHHHMSSVTLSGRGTLGDRQVYRLGYGAMQLAGPGVFGPPKDPEEAVRVLQAAVEAGINHIDTSDFYGPHVTNQLIRKALHPYPDDLCIVTKVSARRDEKGNWLPAMSPAELTQAVEDNLRHLGLEVLEVVNLRSMLSPHGPVEGSLEAPLATLLELKERGLIRHIGLSNVTAKQVADAQKMTPIVCVQNLYNVAHRADDALVDALAAQHIAWVPFFPLGGFTPLQAQELNEVAASLEATPMQVALAWLLQRAPNILLIPGTSSRTHLAENIAAAELVLPAEALRTLDNIATAARR, MGSDKIHHHHHHMSTNLRRIQKIKGGSYIVSLPSDWVRENGLDVSREVEVFESSGIIKIRPKKDFNFERIIDFTDEETAEYLTSVYYMQGMTKITIQSKDVISRDVKDKIKMLQLELPGLNLKEESFNSITFEVDEEILKVQDSFFDFSNKALSILKDVTKIIETPREDMKQDLTSRCLALNSDYFKLIRSIALTVQRDDKYKLDVPVKDIILYAVASRDLGRFITHTRLLIGNIKQEDMKMRDQVLLLINTMENIITMFKTEDINMASRIRKNAHEILESVKSTSEANKELERMTGYALALMDDAVHKAVHL, MGSDKIHHHHHHMSTSSGERVTVGTATASPGEAVRGAIPAGDLAGGVKVEIPVVVINGGGAGPTFWVNAAIHGDEPEGPLACALAVKQIDPAKLRGTVVMVPCVNPLAFSAAERGNPLDTFTYDMNRIYPGKPDGYFSDRVADAHWQAMKDVADLEISIHSGGAHSFLDKAIFVDERPESVELAKAMGEGWGCIMSNFTKAGSPMAAMNNAGKVDITVELGGRSYTSPDRFRYVGEELAKSILNICYHYDMLDGQATYPTDATIGQQEALLAPASGIFLPEPGVDFLTMMDNGTKIARIINIFGDEVGALHAPARGMFFGLRALPNVNQGDWCCFFNKVEGPRD, MGSDKIHHHHHHMSTVAFHTLGCKVNHYETEAIWQLFKEANYERVDFEANADVFVINTCTVTNTGDKKSRQIIRRAIRQNPDAVICVTGCYAQTSSAEIMEIPGVDVVVGTQDRHKLLGYIDEFRKERQPINGVGNIMKNRKYEELDVPYFTDRTRASLKIQEGCNNFCTFCIIPWARGLMRSRDPEKVVEQATQLVNSGYKEIVLTGIHTGGYGQDLKDYNLAQLLRDLETINGLERIRISSIEASQLTDEVIDVLERSTKVVRHLHIPLQSGSDTVLKRMRRKYTMDRFSERLTKLHKALPDLAVTSDVIVGFPGETEAEFQETYDFIVKHKFSELHVFPYSPRIGTPAARMDDQIDEEIKNERVHKLITLSNQLGKLYASKFDQDVLEVIPEEQGDTEGTLVGYADNYMKVQFEGDESLIGQIVKVKITQANYPLNEGQAIKVVDFATNKSDREVLV, MGSDKIHHHHHHMSTVTTGRTLDANGDPVPGTGFELDPDSQFADRVRERTGPVTSHPTRPVWGIPLEGSGDTIRTLSVFGPGYGGPPEHYHEQSPERFEVERGSLTMMLDGTDHEVTAGETATVETGVTHTFRNDTDKRAVVITNIYSPGRLRQVLPTLGGLAHDDEGNPENPLQQALVADRLDGNTVFTRQERLEPLSRLLTPVAELAGYQGAYAKYTQPAFWERHVEQPDL, MGSDKIHHHHHHMSVMFDPQAAIYPFPPKPTPLNDDEKQFYREKIKRLLKERNAVMVAHYYTDPEIQQLAEETGGCISDSLEMARFGTKHAASTLLVAGVRFMGETAKILSPEKTILMPTLAAECSLDLGCPIDEFSAFCDAHPDRTVVVYANTSAAVKARADWVVTSSIAVELIEHLDSLGEKIIWAPDRHLGNYVQKQTGADVLCWQGACIVHDEFKTQALTRLKKIYPDAALLVHPESPQSIVEMADAVGSTSQLIKAAKTLPHRQLIVATDRGIFYKMQQAVPEKELLEAPTAGEGATCRSCAHCPWMAMNGLKAIAEGLEQGGAAHEIQVDAALREGALLPLNRMLDFAATLRA, MGSDKIHHHHHHMSVTNVTREELWAKQHLSCKNMDYAVWERDKSMLQKLSRINGGCSFVVDVYKGCYAYASTGFVDWLGYDRHKIETLEKQGDYLESRIHPHDRSQLEDLQVRLGKFIYNQPFEHRNDYCNVYSFRILNARGNYVRVTSRHQVLEQSHDGKAWLIIGNMSMAPGQKESEQVECTVLNLRNGEMFSPGVVIMNPAFGLTGREMEILRLIQRGFLSKEIADKLCISIHTVHIHRQNLLRKLGVQNSLEAIRLGQESGLLS, MGSDKIHHHHHHMSVVDFSKLYPDNRQEGETVLRQAQLVMLRMLKIIDYICRKHDISYWMCSGTLLGAVRHKGFIPWDDDLDICMIREDYERFVEIAVNEFPEDMMLQTRETDPHYHYLPLPCKVRDKKSFILSPGYEDEECEKGLFIDIFPMDRYHKQKLPFMFEKMVKVYNTFICKSLDAIYFKDESIDKKILAFFHPVFHKLVLQYMKFAKKLIDKNRGLGTDCRLGHGFDTLWKRYLRFDDIFPVVEIDFEDSKFFAPHRPDVYLTTLYGPNYMTPPPEKQRLAAQHAHEIKPII
